# Reference: patent WO2019016784A1 (dated 2019)
# B1: aNCL-CDR3-L VHH (VHH)
# VHH: QVQLQESGGGLVQPGGSLRLSCAASGRTFSDHSGYTYTIGWFRQAPGKEREFVARIYWSSGNTYYADSVKGRFAISRDIAKNTVDLTMNNLEPEDTAVYYCAASGGGSPQRRSARLSASGGGSWGQGTQVTVSS
# notes: The entry holds leader peptide, His tag and HA tag; also called CDR3-grafted VHH with SGGGS linkers
# B2: aNCL-CDR1 VHH (VHH)
# VHH: QVQLQESGGGLVQPGGSLRLSCAASPQRRSARLSAWFRQAPGKEREFVARIYWSSGNTYYADSVKGRFAISRDIAKNTVDLTMNNLEPEDTAVYYCAARDGIPTSRSVESYNYWGQGTQVTVSS
# notes: The entry is expected to hold leader peptide, His tag and HA tag like the others; also called aNCL-CDRl; a-NCL-CDRl VHH
# B3: aNCL-CDR3 VHH (VHH)
# VHH: QVQLQESGGGLVQPGGSLRLSCAASGRTFSDHSGYTYTIGWFRQAPGKEREFVARIYWSSGNTYYADSVKGRFAISRDIAKNTVDLTMNNLEPEDTAVYYCAAPQRRSARLSAWGQGTQVTVSS
# notes: The entry holds leader peptide, His tag and HA tag; also called CDR3-grafted VHH; anti-nucleolin VHH
# B4: aNCL-CDR1-L VHH (VHH)
# VHH: QVQLQESGGGLVQPGGSLRLSCAASSGGGSPQRRSARLSASGGGSWFRQAPGKEREFVARIYWSSGNTYYADSVKGRFAISRDIAKNTVDLTMNNLEPEDTAVYYCAARDGIPTSRSVESYNYWGQGTQVTVSS
# notes: The entry holds leader peptide, His tag and HA tag; also called aNCL-CDRl-L; CDR1-grafted VHH with SGGGS linkers
# Biological target: T1, human recombinant nucleolin (human, UniProt P19338 1-710, limits assumed)
# T1 construct: also called human nucleolin
# T1 sequence (P19338 whole entry, form in doubt): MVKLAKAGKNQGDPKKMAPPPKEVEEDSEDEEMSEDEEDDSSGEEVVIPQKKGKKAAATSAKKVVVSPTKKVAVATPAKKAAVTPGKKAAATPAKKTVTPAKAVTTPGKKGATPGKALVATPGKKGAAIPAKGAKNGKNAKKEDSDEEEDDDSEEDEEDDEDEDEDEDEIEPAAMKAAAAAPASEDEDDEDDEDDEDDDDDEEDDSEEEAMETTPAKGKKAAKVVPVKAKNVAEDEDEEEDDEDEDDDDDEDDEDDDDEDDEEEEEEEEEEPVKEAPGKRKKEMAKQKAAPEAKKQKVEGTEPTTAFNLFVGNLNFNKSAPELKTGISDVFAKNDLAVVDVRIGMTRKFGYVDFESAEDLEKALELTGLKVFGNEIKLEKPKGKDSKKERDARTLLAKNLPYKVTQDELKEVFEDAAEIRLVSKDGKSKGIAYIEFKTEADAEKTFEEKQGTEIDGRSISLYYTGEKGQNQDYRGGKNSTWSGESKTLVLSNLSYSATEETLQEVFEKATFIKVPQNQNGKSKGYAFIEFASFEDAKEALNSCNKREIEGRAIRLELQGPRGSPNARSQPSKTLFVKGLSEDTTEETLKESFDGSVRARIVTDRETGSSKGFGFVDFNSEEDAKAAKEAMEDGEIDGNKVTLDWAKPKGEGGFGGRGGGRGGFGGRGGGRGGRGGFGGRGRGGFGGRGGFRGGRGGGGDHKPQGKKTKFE
# Assay: ELISA, 100 ng human nucleolin coated, 100 pmol VHH, anti-HA-peroxidase detection
row,fold increased nucleolin binding relative to the parental VHH [fold],Binder
1,3,B1
2,2,B2
3,3,B3
4,2,B4

# Biological target: T2, human recombinant TNF-a (human, UniProt P01375 77-233)
# T2 construct: Coated at 200 ng per well in the ELISA; also called human TNF-a
# T2 sequence (P01375 77-233 limits assumed): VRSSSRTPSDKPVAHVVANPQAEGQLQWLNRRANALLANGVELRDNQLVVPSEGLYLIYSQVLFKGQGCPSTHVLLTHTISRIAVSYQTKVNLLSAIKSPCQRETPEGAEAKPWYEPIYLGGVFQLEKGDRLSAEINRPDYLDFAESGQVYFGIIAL
# Assay: ELISA, 200 ng human TNF-a coated, 100 pmol VHH, anti-HA-peroxidase detection
row,percent lower binding to TNF-a than the parental VHH [%],Binder
1,~40,B1
2,~40,B2
3,~40,B3
4,~40,B4
